{"source": "the DeepSol protein solubility set", "data": [{"test": "soluble on expression in E. coli; label from the status in PepcDB or PDB records", "values": [{"sequence": "METPYHQRWLAFPDAVSSYRPLESRLAGTSRATADNRTPCTGRLGTPRVFLMATDDVSKAYSSPTFDAEALLGTVISAEDPDRVLIEPWATGVDGVILDVGSGTGRWTGHLASLGHQIEGLEPATRLVELARQTHPSVTFHHGTITDLSDSPKRWAGLLAWYSLIHMGPGELPDALVALRMAVEDGGGLLMSFFSGPSLEPMYHPVATAYRWPLPELAQALETAGFQVTSSHWDPRFPHAYLTAEASLEHHHHHH", "soluble on expression in E. coli": "soluble"}, {"sequence": "GSKKKVKELKVLDSKTAQNLSIFLGSFRMPYQEIKNVILEVNEAVLTESMIQNLIKQMPEPEQLKMLSELKEEYDDLAESEQFGVVMGTVPRLRPRLNAILFKLQFSEQVENIKPEIVSVTAACEELRKSENFSSLLELTLLVGNYMNAGSRNAGAFGFNISFLCKLRDTKSADQKMTLLHFLAELCENDHPEVLKFPDELAHVEKASRVSAENLQKSLDQMKKQIADVERDVQNFPAATDEKDKFVEKMTSFVKDAQEQYNKLRMMHSNMETLYKELGDYFVFDPKKLSVEEFFMDLHNFRNMFLQAVKENQKRRETEEKMRRAKLAKEKAEKERLEKQ", "soluble on expression in E. coli": "soluble"}, {"sequence": "MSHLRIPANWKVKRSTPFFTKENVPAALLSHHNTAAGVFGQLCVMEGTVTYYGFANETATEPEVKVVINAGQFATSPPQYWHRVELSDDARFNIHFWVEEDHQGEEMYQQKKA", "soluble on expression in E. coli": "not soluble"}, {"sequence": "PRLLCTATKQKNSGQNLEEDMGQSEQKADPPATEKTLLEEKVKLEEQLKETVEKYKRALADTENLRQRSQKLVEEAKLYGIQAFCKDLLEVADVLEKATQCVPKEEIKDDNPHLKNLYEGLVMTEVQIQKVFTKHGLLKLNPVGAKFDPYEHEALFHTPVEGKEPGTVALVSKVGYKLHGRTLRPALVGVVKEA", "soluble on expression in E. coli": "not soluble"}, {"sequence": "WRKDIVLPKDQAKGVRPYNPKFKDSEYFSRYNALINDERLIEFAKKNNYKITFFPHPDIQQQIVDFEKHDYVEFADYNSSYQMLFNSSNIMITDFSSVAFDFAYEKKPVIYYQYEKSYHFKLDYYDYKKMGFGDVLENHNSLVDKVIYYMKNNSRMEDKYRKRVDNFFAYTDKNNRNRIYNAILE", "soluble on expression in E. coli": "not soluble"}, {"sequence": "MDFVSEMNKILQMELEQFKEFIQKKLEEDKNYLEKLFWLPNGSQMTVLNYLIEQYSEPKLGIDDANRDLLAKIDFVLHEAKDVNVGEPLHQAIVAGKISLALHLLGVDENNFTPGESEKTDVLSILSKVRKKIEESFNHVKRCFFDVDKRDGYGRTLLSLALDAKRQELLIAILARNPIVHATTLRSSAYVPFQPIHQAVVLDYAEGITLLASMGAQLTNPLGSMRDTPVILAARLGKINALAALLELPTQSLSLESENNHLFEDKQTGHTAVEELCERMANENDKADALRGIAMLICRGAEPPRNEKMRNLLSSNRVAFLKAVSTYLADKPQLVDAFVERCHLRESALHNIVYADHSWGSSIRHLLGVPSEAALIVEELVTRKYSDPSFASENVSSLSTTATENLRSERNPLKLYAEFVRRYTQAYDSQMITNRWSTMRWMIAEGNCDWDTVVRYSKNHPTSRTRIVLNEMFNPIPRVHEDIESQQSSPRVVLK", "soluble on expression in E. coli": "not soluble"}, {"sequence": "MGSDKIHHHHHHMIVLSKRELFAMLPSVDEVLSDNRIVEIINEYPRSLVLESVREVIDLKRQFILRLKEDASNSVTIEFGEIIESAIERVKLNYSLSLKKVINATGTVIHTNLGRSLLSEDIKDELWCAASRYSNLEYDLDNGERGSRYSHLTSTIKRLTGAEDVLVVNNNAAAVLLVLSTMAKGGEAIVSRGELVEVGGSFRIPSIMALSGAELVEVGSTNKTHLKDYKEAITEDTNVLMKVHTSNYRIMGFTESVSIEELVNLGKKYKLPVIEDLGSGVFIDLSKYGLSYEPTVLDSIRQGADVVTFSGDKMLGGPQAGIIVGKKEYIEKMKKNQLTRALRVDKLTICALEATLRMYLDETKAIENIPTLKMLTYKIEELEVKANKLFEKITALNLNANINIEDGFSQVGGGSMPLETISTKVISITPEHMNVSSLEKKLRLSEAHIIARVYDNKYVLDVRTIFDDEFDVIVEELRKAFN", "soluble on expression in E. coli": "not soluble"}, {"sequence": "HHHHHHYMEQEEDWDRDLLLDPAWEKQQRKTFTAWCNSHLRKAGTQIENIEEDFRNGLKLMLLLEVISGERLPRPDKGKMRFHKIANVNKALDFIASKGVKLVSIGAEEIVDGNLKMTLGMIWTIILRFAIQDISVEETSAKEGLLLWCQRKTAPYRNVNVQNFHTSWKDGLALCALIHRHRPDLIDYAKLRKDDPIGNLNTAFEVAEKYLDIPKMLDAEDIVNTPKPDEKAIMTYVSCFYHAFAGAEQAETAA", "soluble on expression in E. coli": "soluble"}, {"sequence": "SADIYIMGHRYPDMDALGSAFGVARLASFNNRKAWIVLDENEIIPDVKRVLEAIKEYPELEERIISPKEAMKRKKESSLLVMVDYHKPSLSISQELYERFDKVVIIDHHRRGDEFPAKPLLSYIESSASSASELVTELIEYQSNSANKLQAFEATMMLAGIVVDTKSFNTRTTARTFDVASYLRTCGADSSLVQYLLSSDL", "soluble on expression in E. coli": "not soluble"}, {"sequence": "MGSDKIHHHHHHMRRIKIFDTTLRDGEQSPGASMSIEEKVEMALMLEDLGVDLIEAGFPVSSPVQFEAVKRVASAVQKPIVVGLARCVEKDIDAAYEALKDRPKDKRMIHVFIATSPIHRKYKLRMEKEEILERIRRYVGYAKQFFDLVEFSAEDASRTEVPFLIEAYKTAIEAGATTINVPDTVGYALPDEFGELIKTLREGVPGIENVDLSVHCHNDLGLAVANSLAAVQNGATQVEVTLNGIGERAGNCALEEFVMILKVRKDKLPYETGIKTELIYPASRLLTHITGLIPSRNKPIVGENVFLHESGIHQDGVLKHRETYEIMKPSDIGRSSETLVLGRHSGKHALRKKLETYGIKLDEETFQKVFEKFTELADRKKEVYDDDLFSIVSEVLREPINGYKLVHFHVHTGNTLLPTAAVVLQVGNEKREAAEAGNGPVDAIFKAIDKALGIQPKLEEYIIQAVGTGKNAQGEVKLTLRIDNELYSGRGVSTDIVEASAIAYINAINKYLIAKGLLRKNGGAE", "soluble on expression in E. coli": "not soluble"}, {"sequence": "MAKRILCFGDSLTWGWVPVEDGAPTERFAPDVRWTGVLAQQLGADFEVIEEGLSARTTNIDDPTDPRLNGASYLPSCLATHLPLDLVIIMLGTNDTKAYFRRTPLDIALGMSVLVTQVLTSAGGVGTTYPAPKVLVVSPPPLAPMPHPWFQLIFEGGEQKTTELARVYSALASFMKVPFFDAGSVISTDGVDGIHFTEANNRDLGVALAEQVRSLL", "soluble on expression in E. coli": "soluble"}, {"sequence": "MKFIVKLQAEITIKSRPVRKRFTKILESSVKNVLRRIDEQVTTRMNWDNIEVNTKDNSPENRERLVEALKCIPGIPMFLEVQQSEFVDVHDIYEKTLAVHAESIENKTFCVRAKRTGNHDFNSLKVEQYVGGGLNQQVESAKVKLKNPDVTIHLEIKNKDLFIVTQRHKGLGGFPIATQEDVLSLMSGGFDSGVSSYQMIKKGARTHYCFFNLGGSAHEVGVKQISYYLWNKFGASHKVKFFAVDFEPVVAEILENVENSQMGVVLKRMMIRAATKIAERGKIQALVTGESLGQVSSQTLTNLNVINRVTDTLILRPLAAYDKQDIIDIARKIGTEEFSKTIPEYCGVISKKPTVKAVLSKVEEEEGNFDFDVLDKVVSETRVYDIRDIGKEAEEEIHAVDLVENIPENAVVVDIRSPEEEEDKPLELGDVEVKHIPFYKLSTQFGDLDMTKEYLLYCDHGVMSKLQALYLLDNGFKNVKVYRP", "soluble on expression in E. coli": "not soluble"}, {"sequence": "GMTRPAHPISRYPVPELAALPDDIRQRILEVQDKAGFVPNVFLTLAHRPDEFRAFFAYHDALMLKDGGLTKGEREMIVVATSAANQCLYCVVAHGAILRIYEKKPLVADQVAVNYLKADIPPRQRAMLDFALKVCKASHEVNEADFEALREHGFTDEDAWDIAAITAFFGLSNRMANTIGMRPNDEFFLMGRVPKSK", "soluble on expression in E. coli": "soluble"}, {"sequence": "MAVYLDFENHIKEIQNEIELALIRGDEDAKEILEKRLDKEVKSIYSNLTDFQKLQLARHPDRPYAMDYIDLILKDKYEVFGDRHYNDDKAIVCFVGKIDNVPVVVIGEEKGRGTKNKLLRNFGMPNPCGYR", "soluble on expression in E. coli": "not soluble"}, {"sequence": "SLSMKLLIADDEDTIRNGIAKYIKLHTDRFSQIYLAENGQQALDIILQYQPDMMLLDVQMPLKTGLEVLQEAQKLSLVPKTIILSGYDDFEYARKALRYGAKDYLLKPCRSSEILEAINKLVQEQLGTKEG", "soluble on expression in E. coli": "not soluble"}, {"sequence": "MGSDKIHHHHHHMQNFVLTVSCKSTRGVVAALSGYLAEQGCNIADSSQFDDLDTGKFFMRTSFISEERVGLAALEEGLKPIASKFEMETALHEQSERMKVLLMVSRFGHCLNDLLYRWKIGALPIDIVGVVSNHFDYQKVVVNHDIPFHHIKVTKENKPKAEAQLMDVVEQTGAELIVLARYMQVLSDALCKKMSGKIINIHHSFLPSFKGANPYKQAYERGVKLIGATAHYVTADLDEGPIIEQDIARITHAQSAEDYVSIGRDVESQVLARAVHAHIHHRCFINGNRVVVFPPSPGSYASERMG", "soluble on expression in E. coli": "not soluble"}, {"sequence": "MMFVKNNFNTNNFDAELVEAIGNRLENNQFSDAILAGTKYLTTLLREKGQCEGDGAQLVGTVLGGQSPRIQINSLQSVSEQDEQRGFEALLRGYYQCIRNPRTHDNFPDTEDSCMRILIMLDTFIKYLKRDVAEFDYTAILERIYEVHFVNNSDYAEALISQIPEKKLLDFFQSLISRFNERPTKEIDSIFKAINQRFSGEEEKAAMRLLGDELRKASNNVEFANVFRIIKPSAWRNLPDDVLIRMENIIIEECKKGYLDFYSDATKGAIGTWGNTFGSKFKRRGDLGDALIGLLYDSWYTQNYVAKYYVFSIPSIITDDVKVKELADALAYATIVNGAKLLRTKLIDACKNYPDKLKEHLRDAVQQRMDSDKKYAEELLGQIS", "soluble on expression in E. coli": "not soluble"}, {"sequence": "MAYVGDDLIDWPVMEKVGLSVAVADAHPLLIPRADYVTRIAGGRGAVREVCDLLLLAQGKLDEAKGQSI", "soluble on expression in E. coli": "not soluble"}, {"sequence": "IDFRTNKSKDAVIVVELASPAAIVDVKRVQEGLSIDLMNTSVKDEQLYLLDVKDFATVVESVEVFRDTSTTRLVAYIDEEYTHDYRLTGRYLEITVSKLKPNEKV", "soluble on expression in E. coli": "not soluble"}, {"sequence": "MKIEFFHDVICSFCFPMSDRMHEIQQEFPEIELIHRSFALGWSANDFETMFGSRAAVKEEVLTHWVHANQNDSKHRFNIEGMRKQRFDFPTSKNVLLAAKAAGYIGNQDTYWLLFDKLQEGLFVRSLNIEEPEVIEKLVKETTIDFALWKEAVASEAVWTAVQEDFALASAYGLQGVPALIINQKYLINGAVPKQQISQTIQKILAEEKQQQPLVSLTPSSEESASCEFKEGTWTCH", "soluble on expression in E. coli": "not soluble"}, {"sequence": "MNDGNSRTPYNSLYKPLNLIKSKPDGCCKHNGQCPYGKNQAESVDDGNSRTPYNSIYEPLSLNKSKPDSQCSNGKKPADDEYVNLLLPQSKEEQVAEKLADKLRKLEVKESKGKRRGSKERKKKKPEPVESTYESLASIEGSTNFSGPVTTESLESNVKCHHASQTAYIGVYSSADAEAQVKNRGEFALYHQFEVGNRLDHLTATLPLMLVYYTTTKKHRHYPVRKSGDNGTVQYSVDCGYPIVRKHFSINQLVLYYKTFGSIQMKQEDICSEEFSWWLE", "soluble on expression in E. coli": "not soluble"}, {"sequence": "MGSDKIHHHHHHMSDVNASLVDGKKILVTGGAGFIGCAISERLAARASRYVVMDNLHPQIHASAVRPGALHEKAELVVADVTDAGAWDALLSDFQPEIIIHLAAETGTGQSLTEASRHALVNVVGTTRLTDALVKHGIVVEHILLTSSRAVYGEGAWQKDDGTIVYPGQRGRAQLEAAQWDFPGMTMLPSRADRTEPRPTSVYGATKLAQEHVLRAWSLATKTPLSILRLQNVYGPGQSLTNSYTGIVALFSRLAREKKVIPLYEDGNVTRDFVSIDDVADAIVATLVRTPEALSLFDIGSGQATSILDMARIIAAHYGAPEPQINGAFRDGDVRHAACDLSESLANLGWKPQWSLKRGIGELQTWIAQELDRKN", "soluble on expression in E. coli": "not soluble"}]}]}
